Target: M6P receptor (M6PR) (human)
Assay: cell-based or functional assay

intracellular α-gal A activity of Fabry patient fibroblasts after 18 hours incubation with 10 µg/ml enzyme (fold of untreated cells): 134 fold
Substance: Agalsidase beta (Genzyme, Fabrazyme) (from UniProt P06280 32-429)
